{
  "source": "the supplement of paper PMC9170038",
  "data": [
    {"test_system": "MS2 coat protein", "assay": "apparent KD of MS2 coat protein, switch ON state; designed switch direction (-1 OFF switch, 1 ON switch): -1; higher = weaker reporter binding", "details": "FMN input: 0 or 200 uM; Eterna round: R93 (includes R88 designs)", "method_in_brief": "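For every design, apparent KD is the median of normalised binding-curve fits from its clusters. The RNA switches were transcribed on-chip from Illumina sequencing clusters and titrated with SNAP-549-labelled MS2 coat protein (twofold steps, 0.7 or 1.5 nM to 3 µM; 0.8–1.5 h to 10–20 min per step). Titrations used 100 mM Tris-HCl pH 7.5, 80 mM KCl, 4 mM MgCl2, without or with constant ligand.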", "units": {"apparent KD of MS2 coat protein": "nM"}, "values": [
      {"sequence": "AAAAAGAUAGGAUAUACGAACAUGUCAAAAGACGUGAAGGGACAUGAGGAUCACCCAUGUAGAAGGGUUAAAAA [JL Wide Open 38]", "apparent KD of MS2 coat protein": 155},
      {"sequence": "AAAAAGCGAGGAUAUACAUGAGGAUCACCCAUGUGAAAAAAAAAAAAAAAAAAAAAAAGUAGAAGGCGCAAAAA [H20 RNA]", "apparent KD of MS2 coat protein": 46.4},
      {"sequence": "AAGAAGUGAGGAUAUCGAAGACAAAAAAAAAAAAAGUCGAACGAGAAGGCACAUGAGGAUCACCCAUGUAAGAA [shorter stack]", "apparent KD of MS2 coat protein": 37.7},
      {"sequence": "GGUUUGGUAGGAUAUACAUGAGGAUCACCCAUGUGAGAGAAAAAAGUGAGAAAGAAAAGUAGAAGGACCGGACG [salish99-ex3-123]", "apparent KD of MS2 coat protein": 39.9},
      {"sequence": "UAAAGACAUGAGGAUCACCCAUGUGAGGAUAUGUGAGACAACAGAACAUCAAGUACAAGCAGAAGGCACAGAAA [JR_Exc001_Sub019]", "apparent KD of MS2 coat protein": 51.8},
      {"sequence": "GGUUGGCGAGGAUAUACAUGAGGAUCACCCAUGUGAGAGAAAAAAGUGAGAAAGAAAAGUAGAAGGCGCUGACA [salish99-ex3-03]", "apparent KD of MS2 coat protein": 58.8},
      {"sequence": "AAAAAACAUGAGGAUCACCCAUGUUAGGAUAUGCAGAGGGAAAAAAAAAAAAAAAAAAGCAGAAGGAACAUAAA [Design1]", "apparent KD of MS2 coat protein": 31.5},
      {"sequence": "AACAGGACAGGAUAUACAUGAGGAUCACCCAUGUAGGAAUUAAGCAGAGUACCACACAGUAGAAGGGUCAUGGA [Ruby 26]", "apparent KD of MS2 coat protein": 27.6},
      {"sequence": "AAAAAACAUGAGGAUCACCCAUGUCAGGAUAUCUGUAUAAAUAAAAAAAUAAAAAUACAGAGAAGGGACAAAAA [Ex1: 608]", "apparent KD of MS2 coat protein": 50.5},
      {"sequence": "AAUACACAUGAGGAUCACCCAUGUAAGGAUAUCGAAAAAAAAAUAAACAAAAAACAAACGAGAAGGUACAAAAA [Exclusion 1 design 3]", "apparent KD of MS2 coat protein": 33.2},
      {"sequence": "GGAAAACAUGAGGAUCACCCAUGUGAGGAUAUCGAUGUCCAAAAAAAAGUGCGGGACUCGAGAAGGCACUUGGC [salish99-ex1-33]", "apparent KD of MS2 coat protein": 51.5},
      {"sequence": "AGCACGUCAGGAUAUACGAACACAAAGGGUAACAACAAGGGACAUGAGGAUCACCCAUGUAGAAGGGACAAGCA [Diamond 95]", "apparent KD of MS2 coat protein": 73.5},
      {"sequence": "AAAAAAUGAGGAUAUACAUGAGGAUCACCCAUGUAAAAGGUCAGGGUGGCGGAGGACGGUAGAAGGCAUAAAAA [Excls3-X]", "apparent KD of MS2 coat protein": 21.6},
      {"sequence": "AAGAACGAAGGAUAUACAUGAGGAUCACCCAUGUAAAAGAAAGAAGGGAAAGAGAAAAGUAGAAGGUCGAAGAA [Usermaatre Piye]", "apparent KD of MS2 coat protein": 22.2},
      {"sequence": "GGAACACAUGAGGAUCACCCAUGUCAGGAUAUGUAGAUAAAAAGAAAAUAAAAUAAAAACAGAAGGGACAAAAG [May 3]", "apparent KD of MS2 coat protein": 76},
      {"sequence": "AAAAAGUGAGGAUAUACGAAAAAAAAAAAAAAAAAAGGUGAACAUGAGGAUCACCCAUGUAGAAGGCACAAAAA [Black Design]", "apparent KD of MS2 coat protein": 102},
      {"sequence": "AAAAAGUAAGGAUAUACAAAAGAAAACACAAAAAAAAAAAAACAUGAGGAUCACCCAUGUAGAAGGUACAAAAA [Ex2 Malc#1]", "apparent KD of MS2 coat protein": 27.3},
      {"sequence": "AAGAAAGGAGGAUAUACAUGAGGAUCACCCAUGUAAAAGAAAGAAAAGGGAAAGAAAAGUAGAAGGCCUAAGAA [Usermaatre-meryamun Ramesses III]", "apparent KD of MS2 coat protein": 39.2},
      {"sequence": "AACGAGUCAGGAUAUACAAAAAAUAAAUAAAUAAAAUAAAAGUAGAAGGGACAUGAGGAUCACCCAUGUAAAUA [JR_Exc004_Sub020]", "apparent KD of MS2 coat protein": 59.3},
      {"sequence": "AAAAAAGGAGGAUAUACGAACAUGUCAAAAGACGUGAAGGGACAUGAGGAUCACCCAUGUAGAAGGCCUAAAAA [JL Part Open 34]", "apparent KD of MS2 coat protein": 35.4},
      {"sequence": "AAAAAGUGAGGAUAUACGCGAACAAAAAUAAAAAAGAAAGCGUAGAAGGCACAUGAGGAUCACCCAUGUCCAAA [Alfred 64% 5]", "apparent KD of MS2 coat protein": 27.7},
      {"sequence": "GAAAAUGGAGGAUAUACAUGAGGAUCACCCAUGUGUAUAAAAAAAUACACAAAAGAAAGUAGAAGGCCAUAAAG [Mat - Exclusion 3 - Mayanna mod - D101]", "apparent KD of MS2 coat protein": 31.4},
      {"sequence": "AGUCAUACAGGAUAUACAUGAGGAUCACCCAUGUAUAUCCAAAAAAAAAAAUCCUCAUGUAGAAGGGUAUGACA [EX3 205: Super Stable 5]", "apparent KD of MS2 coat protein": 17.1},
      {"sequence": "AACUGACAUGAGGAUCACCCAUGUCAGGAUAUGCUUCAUAAAAAGAAACAAAAAUGAUGCAGAAGGGAUAUGGA [Design 35 :P Sub-opt 11]", "apparent KD of MS2 coat protein": 13},
      {"sequence": "AAAAAGGGAGGAUAUACAUGAGGAUCACCCAUGUAGCAGACGAAAAAGAGUCUGUAAUGUAGAAGGCCCAAAAA [65%, Moding Exclusion3-cac2, 4]", "apparent KD of MS2 coat protein": 16.2},
      {"sequence": "UAUAUACAUGAGGAUCACCCAUGUCAGGAUAUGCGCCCAGAAUAUACAUAUGAUACAAGCAGAAGGGACACUAA [JR_Exc001_Sub205]", "apparent KD of MS2 coat protein": 55.3},
      {"sequence": "AAAAAACAUGAGGAUCACCCAUGUGAGGAUAUGACGUAAAUAAAGAAAUAAGAAAUCGUCAGAAGGCACAAAAA [Mat - Exclusion 1 - Eli mod - D73]", "apparent KD of MS2 coat protein": 28.6},
      {"sequence": "AAGAAGCUAGGAUAUACUUGGGCAACAAAUAAACUAAUAUAACAUGAGGAUCACCCAUGUAGAAGGAGCAGAAA [JR_Exc002_Sub205]", "apparent KD of MS2 coat protein": 39.7},
      {"sequence": "AAUAACACAGGAUAUACUAAAGAAAUGAAAAGAAAUAAAGAACAUGAGGAUCACCCAUGUAGAAGGGUGAAUAA [Shenshek]", "apparent KD of MS2 coat protein": 204},
      {"sequence": "AAAAAACAUGAGGAUCACCCAUGUAAGGAUAUGCUGGUGCGAAAGCACAAAAAAAACAGCAGAAGGUACAAAAA [66%, Wbt, 37]", "apparent KD of MS2 coat protein": 17.4},
      {"sequence": "AAGAAGUCAGGAUAUGCUAAAGAAAUAAAAAUAAAUAAAGAACAUGAGGAUCACCCAUGUAGAAGGGACAAGAA [Sewadjkare Hori]", "apparent KD of MS2 coat protein": 72.1},
      {"sequence": "AAGAAACAUGAGGAUCACCCAUGUCAGGAUAUUCAAAAGAAAAGAAAAGAAAGAAGAAGAAGAAGGGACAAAGG [Neferkare II]", "apparent KD of MS2 coat protein": 57.6},
      {"sequence": "UCCGGACAUGAGGAUCACCCAUGUGAGGAUAUAUAAAGUGGGACUGGAAACAGGCCCAAUAGAAGGCACAUGAC [Atatesin]", "apparent KD of MS2 coat protein": 22.6},
      {"sequence": "CUCUUGUCAGGAUAUCGAUGAAUAAUAAAACAGAGGAACAUUGAGAAGGGACAUGAGGAUCACCCAUGUAAAAC [May 83]", "apparent KD of MS2 coat protein": 73.1},
      {"sequence": "GAAGAACAUGAGGAUCACCCAUGUCAGGAUAUACAGAAGGGAAUAAAAUAACCUGAAAGUAGAAGGGACAAGAA [Ex 1 May 42]", "apparent KD of MS2 coat protein": 29},
      {"sequence": "GUCAGCUGAGGAUAUACAGGUGAUGCCGCAGAACAAAAUAUACAUGAGGAUCACCCAUGUAGAAGGCGGAAGAC [Terian]", "apparent KD of MS2 coat protein": 49.4},
      {"sequence": "AAAAAACAUGAGGAUCACCCAUGUGAGGAUAUGAAAAAACAAAAAAAAAAGUAAACAAUCAGAAGGCACAACAA [JR_Exc--1_Sub1211]", "apparent KD of MS2 coat protein": 27.3},
      {"sequence": "AAUUCACAUGAGGAUCACCCAUGUAAGGAUAUCGAAAUAAAACUAAUCAAUAAACAAACGAGAAGGUACAAAAA [Exclusion 1 design 8]", "apparent KD of MS2 coat protein": 20.4},
      {"sequence": "AAAAAACAUGAGGAUCACCCAUGUAAGGAUAUCGUGCAGAAAAAAAAAAAAAACUGCACGAGAAGGUACAAGGA [Brourd - Exclusion 1 - Sub 1]", "apparent KD of MS2 coat protein": 36.1},
      {"sequence": "AAAAUACAUGAGGAUCACCCAUGUGAGGAUAUGCUAUGGAAAAAUAAAAUAAAACAUAGCAGAAGGCACAAAAA [Mat - Exclusion 1 - Eli mod - D41]", "apparent KD of MS2 coat protein": 34.3},
      {"sequence": "AAGAAGUGAGGAUAUGCUGCUCGUCACUUGCGUGAUGAGUAGCAGAAGGCACAUGAGGAUCACCCAUGUGGGAA [Modifying Chris (69%) Late G segment, early G segment 3]", "apparent KD of MS2 coat protein": 89.1},
      {"sequence": "AAAAAUUGAGGAUAUACGUACAUGUCAAAAGACGUGAAGGGACAUGAGGAUCACCCAUGUAGAAGGCGAAAGAA [JL Neck Breaker 13]", "apparent KD of MS2 coat protein": 37.1},
      {"sequence": "CUUAUGUGAGGAUAUGUACAGAAAAAACUGGGUGUAACUGUACAGAAGGCACAUGAGGAUCACCCAUGUGCAAA [EX4 388: S S Pseudoknot 13]", "apparent KD of MS2 coat protein": 70.2},
      {"sequence": "CCCAUGUCAGGAUAUCAGUAGUAAAAAAAAAAAAUUACUACUGAGAAGGGACAUGAGGAUCACCCAUGUCCAAA [EX4 316: Super Stable 16]", "apparent KD of MS2 coat protein": 61.7},
      {"sequence": "AAAUUGUCAGGAUAUCGUAGAACAGGGAAAACCUGGAGCUACGAGAAGGGACAUGAGGAUCACCCAUGUAAAAC [May 93]", "apparent KD of MS2 coat protein": 62.7}
    ]}
  ]
}
